Tests used:
Assay in all cases: cell-based or functional assay
[1] = target: T1, Frizzled 6 (expressed in transfected 293T cells)
T1 sequence (O60353 whole entry, species assumed, looked up): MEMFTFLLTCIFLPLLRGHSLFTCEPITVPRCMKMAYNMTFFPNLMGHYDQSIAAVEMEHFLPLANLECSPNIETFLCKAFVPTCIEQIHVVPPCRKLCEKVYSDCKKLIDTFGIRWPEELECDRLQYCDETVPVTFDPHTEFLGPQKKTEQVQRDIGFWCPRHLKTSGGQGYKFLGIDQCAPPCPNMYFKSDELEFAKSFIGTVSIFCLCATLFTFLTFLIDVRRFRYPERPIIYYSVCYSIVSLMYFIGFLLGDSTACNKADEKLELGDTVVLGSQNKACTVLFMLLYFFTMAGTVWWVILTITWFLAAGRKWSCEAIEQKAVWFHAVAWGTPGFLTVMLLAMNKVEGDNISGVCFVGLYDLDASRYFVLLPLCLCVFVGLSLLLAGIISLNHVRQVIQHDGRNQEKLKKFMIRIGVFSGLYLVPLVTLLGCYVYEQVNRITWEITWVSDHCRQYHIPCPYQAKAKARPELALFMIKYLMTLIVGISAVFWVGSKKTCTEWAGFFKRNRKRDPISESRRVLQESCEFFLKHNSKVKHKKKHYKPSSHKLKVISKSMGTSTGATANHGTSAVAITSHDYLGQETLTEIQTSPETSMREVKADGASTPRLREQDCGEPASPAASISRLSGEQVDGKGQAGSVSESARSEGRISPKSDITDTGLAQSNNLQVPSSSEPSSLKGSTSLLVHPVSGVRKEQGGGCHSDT

[2] = target: Frizzled 9 (expressed in transfected 293T cells)
[3] = target: Frizzled 7 (expressed in transfected 293T cells)
[4] = target: Frizzled 8 receptor (expressed in transfected cells) (human, UniProt Q9H461 28-694)
Sequence of Frizzled 8 receptor (expressed in transfected cells) (Q9H461 28-694 limits assumed): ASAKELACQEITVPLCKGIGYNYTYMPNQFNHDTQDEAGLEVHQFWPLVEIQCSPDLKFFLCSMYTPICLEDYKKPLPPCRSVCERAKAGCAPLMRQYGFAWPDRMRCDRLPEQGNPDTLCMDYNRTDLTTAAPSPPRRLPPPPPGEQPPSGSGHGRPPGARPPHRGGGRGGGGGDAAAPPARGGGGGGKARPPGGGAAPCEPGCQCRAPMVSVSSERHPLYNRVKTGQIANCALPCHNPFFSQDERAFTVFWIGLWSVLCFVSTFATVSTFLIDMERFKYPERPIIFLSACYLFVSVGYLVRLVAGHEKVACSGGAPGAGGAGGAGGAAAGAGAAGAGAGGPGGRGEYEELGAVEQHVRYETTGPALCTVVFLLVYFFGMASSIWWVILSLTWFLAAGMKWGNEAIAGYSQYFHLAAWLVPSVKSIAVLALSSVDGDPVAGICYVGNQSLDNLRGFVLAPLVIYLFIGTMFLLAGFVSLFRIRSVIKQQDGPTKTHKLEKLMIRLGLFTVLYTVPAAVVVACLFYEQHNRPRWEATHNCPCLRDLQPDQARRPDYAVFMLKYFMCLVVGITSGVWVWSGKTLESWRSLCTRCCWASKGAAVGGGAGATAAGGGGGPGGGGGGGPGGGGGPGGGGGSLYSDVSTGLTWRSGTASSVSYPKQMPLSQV

B1: wild type Wnt2 (expressed from transfected Wnt2 cDNA) (ligand)
chain: SWWYMRATGGSSRVMCDNVPGLVSSQRQLCHRHPDVMRAISQGVAEWTAECQHQFRQHRWNCNTLDRDHSLFGRVLLRSSRESAFVYAISSAGVVFAITRACSQGEVKSCSCDPKKMGSAKDSKGIFDWGGCSDNIDYGIKFARAFVDAKERKGKDARALMNLHNNRAGRKAVKRFLKQECKCHGVSGSCTLRTCWLAMADFRKTGDYLWRKYNGAIQVVMNQDGTGFTVANERFKKPTKNDLVYFENSPDYCIRDREAGSLGTAGRVCNLTSRGMDSCEVMCCGRGYDTSHVTRMTKCGCKFHWCCAVRCQDCLEALDVHTCKAPKNADWTTAT
[1]
  luciferase activity (TOPflash TCF reporter, 293T cells co-expressing Wnt2 and the Fzd receptor): 10 fold
[2]
  luciferase activity (TOPflash TCF reporter, 293T cells co-expressing Wnt2 and the Fzd receptor) over vector control alone: 16 fold
[3]
  TCF-activity (TOPflash reporter, 293T cells) compared to vector control: 4 fold
  TCF-activity (TOPflash reporter, 293T cells), increase due to the presence of Wnt2: ~2 fold
[4]
  TCF activity (TOPflash reporter) in Human Embryonic Kidney 293 cells and A549 cells compared to vector control: 5 fold
  luciferase activity (TOPflash TCF reporter, 293T cells co-expressing Wnt2 and the Fzd receptor) compared to vector alone: 25 fold
